Results published in US8796201B2 (The Board of Trustees of the Leland Stanford Junior …, priority 2002, dated 2014).

Test: Double-blind crossover gluten challenge: 25 g D-xylose 5-hour urine excretion test
Format: in vivo, human (Celiac Sprue patients)
Excerpt: It was first established that a low-dose, short-term (5-10 g/day for 14 days) gluten oral supplement induces fat and carbohydrate malabsorption when given to asymptomatic Celiac Sprue patients on an otherwise gluten free diet. This protocol was modified to examine the effect of gluten pre-treated with pepsin, trypsin and chymotrypsin (PTC-Gluten) as compared to PTC-Gluten additionally treated with PEP (PTC-Gluten+PEP). In this study, Celiac patients maintaining a gluten-free diet ingested a supplement of 5 g/day gluten as PTC-Gluten or PTC-Gluten+PEP in an orange-lemon juice vehicle for 14 days in a double-blind crossover manner. A 6-week washout interval between individual arms of the crossover trial allowed patients to recover completely from the effects, if any, of the test material in the first arm.
Subjects and protocols: This study was approved by the Institutional Review Board of the Palo Alto Medical Foundation in Palo Alto, Calif., and all participants in the study were counseled regarding risks and signed an informed consent document. 22 patients were recruited who were in symptomatic remission on a gluten-free diet. Two patients dropped out of the study, one near the end of the first stage and the other prior to the second stage. The 20 patients who completed the study included 7 men and […] aged 21 to 78 (mean age 49). The time since diagnosis for the 20 patients ranged from 3 months to 18 years (mean 6 years). Patients provided copies of their initial small-intestinal biopsy pathology report and laboratory reports documenting a history of at least one positive celiac antibody (gliadin, endomysial or transglutaminase) to verify a diagnosis of Celiac Sprue. They also completed an entry questionnaire inquiring about their medical history, adherence to the gluten-free diet, and current symptoms. The format of the study was a double-blinded crossover in which each patient consumed either a low daily dose of a gluten supplement (5 g; equivalent of one-half slice of bread) that was predigested with pepsin, trypsin and chymotrypsin alone (PTC-Gluten) or PTC-Gluten treated with prolyl endopeptidase (PTC-Gluten+PEP). The PEP in the latter orange juice mixture was completely inactivated through a heating process following proteolysis of the gliadin peptides. […]
Studied variables: During each stage of the study, patients completed a daily questionnaire inquiring about symptoms and their adherence to the gluten-free diet. […] The serum anti-gliadin IgA antibodies and anti-tissue transglutaminase IgA and IgG antibodies were measured by an enzyme linked immunosorbent assay (ELISA) kit (INOVA Diagnostics, Inc., San Diego, Calif.). […] Total serum IgA levels were determined by an Integra instrument (Roche) (normal <81 mg/dl). […]

[1] = All patients with full xylose data (N = 14)
[2] = Subgroup with normal (>4 gm/5 hrs) Pre-stage Xylose (N = 10)

B1: PEP: prolyl endopeptidase; Examples 1-2: from Flavobacterium meningosepticum (US Biological); Example 11: source not stated (protein, UniProt P27028 21-705, looked up)
Prolyl endopeptidase: QNSNVLKYPETKKVSHTDTYFGTQVSDPYRWLEDDRAEDTKAWVQQEVKFTQDYLAQIPFRDQLKKQLMDIWNYEKISAPFKKGKYTYFSKNDGLQAQSVLYRKDAAGKTEVFLDPNKFSEKGTTSLASVSFNKKGTLVAYSISEGGSDWNKIIILDAETKKQLDETLLDVKFSGISWLGDEGFFYSSYDKPKEGSVLSGMTDKHKVYFHKLGTKQSQDELIIGGDKFPRRYIGAYVTDDQRYLVVSAANATNGNELYIKDLKNKTDFIPIITGFDSNVNVADTDGDTLYLFTDKDAPNKRLVKTTIQNPKAETWKDVIAETSEPLEINTGGGYFFATYMKDAIDQVKQYDKNGKLVRAIKLPGSGNASGFGGEKTEKDLYYSFTNYITPPTIFKYNVTTGNSEVYQKPKVKFNPENYVSEQVFYTSSDGTKIPMMISYKKGLKKDGKNPTILYSYGGFNISLQPAFSVVNAIWMENGGIYAVPNIRGGGEYGKKWHDAGTKMQKKNVFNDFIAAGEYLQKNGYTSKEYMALSGRSNGGLLVGATMTMRPDLAKVAFPGVGVLDMLRYNKFTAGAGWAYDYGTAEDSKEMFEYLKSYSPVHNVKAGTCYPSTMVITSDHDDRVVPAHSFKFGSELQAKQSCKNPILIRIETNAGHGAGRSTEQVVAENADLLSFALYEMGIKSLK
PEP Effective (patients / patients with positive gluten challenge), urine xylose [1]: 4/8 | PEP Effective, urine xylose [1]: 50% | PEP Effective (patients / patients with positive gluten challenge), urine xylose [2]: 3/5 | PEP Effective, urine xylose [2]: 60%
